Positions count from the first letter of the chain named.
T1: human CD19 antigen (human, UniProt P15391 20-291, limits assumed)
T1 sequence (looked up): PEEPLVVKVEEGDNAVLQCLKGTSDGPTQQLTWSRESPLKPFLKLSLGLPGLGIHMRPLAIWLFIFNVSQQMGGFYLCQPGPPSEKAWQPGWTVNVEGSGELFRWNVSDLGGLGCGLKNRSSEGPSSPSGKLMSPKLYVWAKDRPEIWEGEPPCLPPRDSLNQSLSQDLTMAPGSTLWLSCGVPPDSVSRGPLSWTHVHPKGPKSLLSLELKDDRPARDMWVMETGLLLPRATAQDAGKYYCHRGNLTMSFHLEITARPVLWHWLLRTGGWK

T2: CD19 on CD19-positive target cells SU-DHL-10 and Raji (human, UniProt P15391 20-556)
T2 construct: whole, on cells; also called cell surface antigens
T2 sequence (looked up): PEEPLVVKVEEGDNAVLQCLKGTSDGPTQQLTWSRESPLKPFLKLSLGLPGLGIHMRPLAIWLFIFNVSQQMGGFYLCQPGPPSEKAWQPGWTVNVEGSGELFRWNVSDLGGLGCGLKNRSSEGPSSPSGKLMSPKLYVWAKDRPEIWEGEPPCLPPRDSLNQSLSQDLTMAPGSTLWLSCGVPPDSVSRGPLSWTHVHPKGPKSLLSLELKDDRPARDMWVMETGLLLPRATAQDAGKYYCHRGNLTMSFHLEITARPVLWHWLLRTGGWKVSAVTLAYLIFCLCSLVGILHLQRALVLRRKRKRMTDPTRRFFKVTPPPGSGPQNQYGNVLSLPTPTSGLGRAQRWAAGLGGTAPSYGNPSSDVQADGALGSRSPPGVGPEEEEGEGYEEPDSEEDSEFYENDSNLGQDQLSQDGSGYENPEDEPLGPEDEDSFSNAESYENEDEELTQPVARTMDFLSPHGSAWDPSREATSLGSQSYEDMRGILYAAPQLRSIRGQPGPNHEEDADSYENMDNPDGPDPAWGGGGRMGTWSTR

B1: humanized CD19 antibody VH3 + VL2 (antibody, V domains shown)
VH: QVQLQESGPGLVKPSQTLSLTCTVSGVSLPDYGVSWIRQPPGKGLEWIGVIWGSETTYYNSALKSRLTISKDTSKNQVSLKLSSVTAADTAVYYCAKHYYYGGSYAMDYWGQGTTVTVSS
VL: DIQMTQSPSSLSASVGDRVTITCRASQDISKYLNWYQQKPGKAPKLLIYHTSRLHSGVPSRFSGSGSGTDYTFTISSLQPEDIATYYCQQGNTLPYTFGGGTKLEIK
notes: also called Antibody No. 8
B2: humanized CD19 antibody VH2 + VL3 (antibody, V domains shown)
VH: B1 VH with L67V
VL: B1 VL with F73L
notes: also called Antibody No. 6
B3: humanized CD19 antibody VH4 + VL1 (antibody, V domains shown)
VH: B1 VH with I48L
VL: B1 VL with Y71F
notes: also called Antibody No. 10
B4: humanized CD19 antibody VH1 + VL2 (antibody, V domains shown)
VH: B1 VH with L67V, K71V, V78F, K97R
VL: B1 VL
notes: also called Antibody No. 2
B5: humanized CD19 antibody VH2 + VL2 (antibody, V domains shown)
VH: B1 VH with L67V
VL: B1 VL
notes: also called Antibody No. 5
B6: humanized CD19 antibody VH5 + VL1 (antibody, V domains shown)
VH: B1 VH with L20V, I48L, V85L
VL: B1 VL with Y71F
notes: also called Antibody No. 13
B7: humanized CD19 antibody VH4 + VL3 (antibody, V domains shown)
VH: B1 VH with I48L
VL: B1 VL with F73L
notes: also called Antibody No. 12
B8: humanized CD19 antibody VH1 + VL3 (antibody, V domains shown)
VH: B1 VH with L67V, K71V, V78F, K97R
VL: B1 VL with F73L
notes: also called Antibody No. 3
B9: humanized CD19 antibody VH6 + VL4 (antibody, V domains shown)
VH: B1 VH with L20V, I48L, S61A, V85L
VL: B1 VL with F73L, G91A
notes: also called Antibody No. 16
B10: humanized CD19 antibody VH3 + VL1 (antibody, V domains shown)
VH: B1 VH
VL: B1 VL with Y71F
notes: also called Antibody No. 7
B11: humanized CD19 antibody VH5 + VL3 (antibody, V domains shown)
VH: B1 VH with L20V, I48L, V85L
VL: B1 VL with F73L
notes: also called Antibody No. 15
B12: humanized CD19 antibody VH3 + VL3 (antibody, V domains shown)
VH: B1 VH
VL: B1 VL with F73L
notes: also called Antibody No. 9
B13: humanized CD19 antibody VH2 + VL1 (antibody, V domains shown)
VH: B1 VH with L67V
VL: B1 VL with Y71F
notes: also called Antibody No. 4
B14: humanized CD19 antibody VH1 + VL1 (antibody, V domains shown)
VH: B1 VH with L67V, K71V, V78F, K97R
VL: B1 VL with Y71F
notes: also called Antibody No. 1
B15: humanized CD19 antibody VH5 + VL2 (antibody, V domains shown)
VH: B1 VH with L20V, I48L, V85L
VL: B1 VL
notes: also called Antibody No. 14
B16: humanized CD19 antibody VH4 + VL2 (antibody, V domains shown)
VH: B1 VH with I48L
VL: B1 VL
notes: also called Antibody No. 11
B17: humanized CD19 antibody VH8 + VL6 (antibody, V domains shown)
VH: B1 VH with Q3K, Q16E, L67V, N76S, S79F, T115L
VL: B1 VL with K42G, P44V, Y87F
B18: humanized CD19 antibody VH4 + VL6 (antibody, V domains shown)
VH: B1 VH with I48L
VL: B1 VL with K42G, P44V, Y87F
B19: humanized CD19 antibody VH8 + VL5 (antibody, V domains shown)
VH: B1 VH with Q3K, Q16E, L67V, N76S, S79F, T115L
VL: B1 VL with T22S, Y87F
B20: humanized CD19 antibody VH2 + VL7 (antibody, V domains shown)
VH: B1 VH with L67V
VL: B1 VL with T22S, G41D, K42G, A43T, P44V, Y71F, Y87F
B21: humanized CD19 antibody VH9 + VL5 (antibody, V domains shown)
VH: B1 VH with Q16E, I48L, N76S, T115L
VL: B1 VL with T22S, Y87F
notes: also called H9L5
B22: humanized CD19 antibody VH7 + VL6 (antibody, V domains shown)
VH: B1 VH with Q3K, Q16E, I48L, V78F, T115L
VL: B1 VL with K42G, P44V, Y87F
B23: humanized CD19 antibody VH2 + VL6 (antibody, V domains shown)
VH: B1 VH with L67V
VL: B1 VL with K42G, P44V, Y87F
B24: humanized CD19 antibody VH10 + VL5 (antibody, V domains shown)
VH: B1 VH with Q3K, Q16E, I48L, N76S, S79F, T115L
VL: B1 VL with T22S, Y87F

What follows are binders tested against T1, human CD19 antigen (assay: SPR (Biacore), antibody captured via Fc).
Description: Part of the antibodies in Example 1 were tested for affinity, and the composition of the heavy chain variable regions and the light chain variable regions of the antibodies to be tested are shown in Table 1.
(§1) HEK293 cells were used to express the antibodies to be tested and Protein A was used for purification. The surface plasmon resonance technique (SPR) was used for determination, and the Fc capture method was used for antibody fixation.

Kd [nM] | koff [s⁻¹] | Binder
109 | 0.000638 | B1
44.7 | 0.000395 | B2
81 | 0.000584 | B3
7.95 | 0.00738 | B4
66.8 | 0.000526 | B5
99.7 | 0.000637 | B6
56.1 | 0.000437 | B7
40.7 | 0.0794 | B8
21000 | 0.00493 | B9
111 | 0.000688 | B10
14.2 | 0.00143 | B11
15.8 | 0.00159 | B12
69.8 | 0.000568 | B13
57.6 | 0.00808 | B14
14.8 | 0.0018 | B15
89.2 | 0.000605 | B16

Molecular target: T1, human CD19 antigen
Experiment: SPR (Biacore), antibody captured via Fc
Remark: another data set of the same source
Description: Part of the antibodies in Example 1 were tested for affinity, and the composition of the heavy chain variable regions and the light chain variable regions of the antibodies to be tested are shown in Table 2.
as §1

Kd [nM] | koff [s⁻¹] | kon [M⁻¹ s⁻¹] | Binder
3.26 | 0.000383 | 117000 | B17
9.31 | 0.00121 | 129000 | B18
3.87 | 0.000602 | 155000 | B19
6.39 | 0.00116 | 181000 | B20
1.7 | 0.000186 | 109000 | B21
4.57 | 0.000592 | 130000 | B22
6.93 | 0.00124 | 179000 | B23
1.55 | 0.000182 | 118000 | B24

These binders were tested against T2, CD19 on CD19-positive target cells … (assay: flow cytometry on CD19-positive Raji cells, antibody titrated, fluorescent anti-Fc secondary antibody, percent positive cells (panel 'scFv binding to Raji')).
Description: (§2) Part of the antibodies in Example 1 were detected for surface binding to CD19-positive target cells SU-DHL-10 and Raji.
(§3) CD19-positive SU-DHL-10 or Raji cell lines were used, and humanized antibodies at different concentrations were used to bind the target cells. After binding, secondary antibodies (fluorescent labeled anti-Fc antibodies) were used for staining. After cleaning the residual antibodies, the positive rate was analyzed by flow cytometry to draw the binding curve of antibodies binding to cell surface antigens.

EC50 (read off the curve) [µg/mL] | Binder
~0.04 | B17
~0.03 | B19
~0.03 | B22
~0.03 | B24

What follows are binders tested against T2, CD19 on CD19-positive target cells … (assay: flow cytometry on CD19-positive SU-DHL-10 cells, antibody titrated, fluorescent anti-Fc secondary antibody, percent positive cells (panel 'scFv binding to SU-DHL-10')).
Description: as §2, §3

EC50 (read off the curve) [µg/mL] | Binder
~0.01 | B17
~0.01 | B19
~0.01 | B22

— patent US20230235052A1 (GRACELL BIOTECHNOLOGIES SHANGHAI, published 2023)
